Measurements as given in patent US20260137822A1 (ABDERA THERAPEUTICS, published 2026).
Positions count from the first letter of the chain named.

Key:
[1] = biological target: T1, DLL3 on cells (SHP-77, NCI-H82, HEK-DLL3) (UniProt Q9NYJ7 27-618); assay: flow cytometry, HEK-DLL3 cells
T1 construct: whole, on cells; also called DLL3-positive cell lines
T1 sequence (looked up): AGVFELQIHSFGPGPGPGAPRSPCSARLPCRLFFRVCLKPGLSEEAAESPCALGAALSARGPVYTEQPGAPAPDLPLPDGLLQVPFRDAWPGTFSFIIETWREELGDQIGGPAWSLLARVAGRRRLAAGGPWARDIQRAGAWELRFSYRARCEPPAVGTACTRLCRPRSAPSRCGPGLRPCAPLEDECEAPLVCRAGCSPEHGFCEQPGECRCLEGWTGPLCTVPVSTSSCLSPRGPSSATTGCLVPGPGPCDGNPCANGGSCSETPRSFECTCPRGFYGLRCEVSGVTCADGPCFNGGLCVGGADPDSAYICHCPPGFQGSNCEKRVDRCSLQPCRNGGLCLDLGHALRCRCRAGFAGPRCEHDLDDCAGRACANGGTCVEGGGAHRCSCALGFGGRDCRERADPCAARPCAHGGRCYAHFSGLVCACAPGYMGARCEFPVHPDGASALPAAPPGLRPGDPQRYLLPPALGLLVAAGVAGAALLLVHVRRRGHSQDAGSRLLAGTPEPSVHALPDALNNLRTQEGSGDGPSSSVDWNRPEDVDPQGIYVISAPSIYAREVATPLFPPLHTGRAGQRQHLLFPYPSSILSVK

[2] = biological target: T1, DLL3 on cells (SHP-77, NCI-H82, …); assay: flow cytometry on SHP-77 cells (DLL3-positive), MFI against nM antibody
[3] = biological target: T1, DLL3 on cells (SHP-77, NCI-H82, …); assay: flow cytometry, SHP-77 cells
[4] = biological target: T2, human DLL3.FLAG (Adipogen #AG-40B-0151, amino acid 27-466) (human, UniProt Q9NYJ7 27-466); assay: ELISA on coated hDLL3-Flag, A450nm against nM antibody
T2 construct: range 27-466; Carries a FLAG tag
T2 sequence (looked up): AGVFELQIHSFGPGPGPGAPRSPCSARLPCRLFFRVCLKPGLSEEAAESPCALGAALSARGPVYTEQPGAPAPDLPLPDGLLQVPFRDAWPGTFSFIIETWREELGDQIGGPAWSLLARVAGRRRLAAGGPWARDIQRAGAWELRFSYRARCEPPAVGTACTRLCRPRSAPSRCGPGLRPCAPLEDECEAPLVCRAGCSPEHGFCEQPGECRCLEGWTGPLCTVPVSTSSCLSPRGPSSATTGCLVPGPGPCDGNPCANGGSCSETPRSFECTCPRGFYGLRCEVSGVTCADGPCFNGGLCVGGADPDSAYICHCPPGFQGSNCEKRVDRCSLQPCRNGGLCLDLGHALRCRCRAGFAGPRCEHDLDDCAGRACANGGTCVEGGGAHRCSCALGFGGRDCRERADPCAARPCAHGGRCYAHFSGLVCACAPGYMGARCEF

[5] = biological target: T3, mouse FOLR1 (recombinant antigen) (mouse, UniProt P35846 25-232, limits assumed); assay: ELISA on mFOLR1
T3 construct: also called mFOLR1

[6] = biological target: T4, mouse DLL3 (recombinant antigen) (mouse, UniProt O88516 25-477, limits assumed); assay: BLI (Octet), VHH-Fc captured on AHC biosensor, mDLL3 as analyte
T4 construct: also called mDLL3
T4 sequence (looked up): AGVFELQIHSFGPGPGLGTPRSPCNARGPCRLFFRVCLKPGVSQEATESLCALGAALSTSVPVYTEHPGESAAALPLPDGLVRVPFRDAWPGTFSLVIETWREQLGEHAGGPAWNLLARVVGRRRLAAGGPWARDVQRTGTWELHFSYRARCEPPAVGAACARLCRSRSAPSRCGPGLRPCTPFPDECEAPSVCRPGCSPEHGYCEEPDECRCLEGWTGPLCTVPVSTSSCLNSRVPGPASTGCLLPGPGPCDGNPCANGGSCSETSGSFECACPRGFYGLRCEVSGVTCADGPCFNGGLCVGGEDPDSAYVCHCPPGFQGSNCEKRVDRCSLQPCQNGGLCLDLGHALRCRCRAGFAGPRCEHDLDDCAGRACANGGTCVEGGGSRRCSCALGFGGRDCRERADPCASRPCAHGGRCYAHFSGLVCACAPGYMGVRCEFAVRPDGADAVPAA

[7] = biological target: T5, human FOLR1 (recombinant antigen) (human, UniProt P15328 25-234, limits assumed); assay: ELISA on hFOLR1
T5 construct: also called hFOLR1

[8] = biological target: T6, FOLR1 on cells (OVCAR3, OV-90) (UniProt P15328 25-234); assay: flow cytometry on FOLR1 expressing OV-90 cells, Geomeans RL1-H against Conc (nM) [top panel]
T6 construct: whole, on cells; also called FOLR1-positive OVCAR3 cells; FOLR1 expressing OV-90 cells

[9] = biological target: T7, human DLL3 (recombinant antigen) (human, UniProt Q9NYJ7 27-492, limits assumed); assay: BLI (Octet), VHH-Fc captured on AHC biosensor, hDLL3 as analyte
T7 construct: also called hDLL3
T7 sequence (looked up): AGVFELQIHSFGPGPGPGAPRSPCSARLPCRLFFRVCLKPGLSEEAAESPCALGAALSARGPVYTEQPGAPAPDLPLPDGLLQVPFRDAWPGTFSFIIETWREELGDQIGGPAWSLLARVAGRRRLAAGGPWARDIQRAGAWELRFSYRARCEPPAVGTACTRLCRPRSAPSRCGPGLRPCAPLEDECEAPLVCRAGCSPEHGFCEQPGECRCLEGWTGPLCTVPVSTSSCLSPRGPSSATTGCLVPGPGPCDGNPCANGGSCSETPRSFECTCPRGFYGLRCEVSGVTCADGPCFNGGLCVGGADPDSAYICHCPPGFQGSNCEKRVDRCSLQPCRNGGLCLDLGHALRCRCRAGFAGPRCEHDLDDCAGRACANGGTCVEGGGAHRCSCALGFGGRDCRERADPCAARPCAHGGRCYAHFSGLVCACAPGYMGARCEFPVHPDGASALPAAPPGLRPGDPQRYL

[10] = biological target: T6, FOLR1 on cells (OVCAR3, OV-90); assay: flow cytometry on FOLR1 expressing OV-90 cells, Geomeans RL1-H against Conc (nM); linker not printed on the sheet, taken as the (GGS)3 parent of the conjugate [bottom panel]
[11] = biological target: T8, human DLL3 (antigen of Example 30) (human, UniProt Q9NYJ7 27-492, limits assumed); assay: BLI (Octet), tetramer captured on AHC sensor, antigen as analyte
T8 construct: also called hDLL3
T8 sequence (looked up): T7 sequence (looked up)

[12] = biological target: T9, murine FOLR1 (antigen of the Octet assay) (murine, UniProt P35846 25-232, limits assumed); assay: as above
T9 construct: also called mFOLR1

[13] = biological target: T6, FOLR1 on cells (OVCAR3, OV-90); assay: flow cytometry on FOLR1 expressing OV-90 cells, Geomeans RL1-H against Conc (nM) [bottom panel]
[14] = biological target: T10, FcγRIIa (R167) (biotinylated, Acro Biosystems) (UniProt P12318 36-218, biotinylated); assay: BLI (Octet), biotinylated FcγR on SA sensor, steady state analysis
T10 sequence (looked up): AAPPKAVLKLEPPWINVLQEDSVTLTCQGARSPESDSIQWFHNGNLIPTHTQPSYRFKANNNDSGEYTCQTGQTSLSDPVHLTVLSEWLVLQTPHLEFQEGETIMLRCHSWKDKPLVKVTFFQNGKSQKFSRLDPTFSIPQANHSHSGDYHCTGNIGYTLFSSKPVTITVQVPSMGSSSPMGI

[15] = biological target: T11, FcγRIIa (H167) (biotinylated, Acro Biosystems) (UniProt P12318 36-218, biotinylated); assay: BLI, biotinylated FcγR on SA sensor
T11 sequence (looked up): T10 sequence (looked up) with R132H

[16] = biological target: FcγRIIIa (F176) (biotinylated, Acro Biosystems) (UniProt P08637 17-208, biotinylated); assay: BLI, biotinylated FcγR on SA sensor
[17] = biological target: FcγRIIIa (V176) (biotinylated, Acro Biosystems) (UniProt P08637 17-208, biotinylated); assay: BLI, biotinylated FcγR on SA sensor
[18] = biological target: biotinylated hFcRn (Sino Biological, Cat #: CT071-H27H-B) (human, UniProt P55899 24-297; P61769 21-119, biotinylated); assay: BLI (Octet), biotinylated hFcRn on SA sensor, pH 6.0, 2:1 heterogeneous ligand model

T6 sequence (P15328 25-234): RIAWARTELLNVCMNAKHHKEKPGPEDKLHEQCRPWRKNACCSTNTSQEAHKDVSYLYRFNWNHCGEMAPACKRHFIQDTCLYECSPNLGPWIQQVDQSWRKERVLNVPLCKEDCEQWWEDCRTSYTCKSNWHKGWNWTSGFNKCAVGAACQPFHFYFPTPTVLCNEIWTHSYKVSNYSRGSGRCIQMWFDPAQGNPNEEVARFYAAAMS
Chain of FcγRIIIa (F176) (biotinylated, Acro Biosystems) (P08637 17-208 limits assumed): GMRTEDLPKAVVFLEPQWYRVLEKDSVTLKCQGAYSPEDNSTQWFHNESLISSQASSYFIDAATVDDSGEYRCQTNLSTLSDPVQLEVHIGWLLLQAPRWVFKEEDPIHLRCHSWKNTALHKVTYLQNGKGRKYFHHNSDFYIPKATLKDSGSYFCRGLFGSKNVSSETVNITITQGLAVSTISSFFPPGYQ
Chain of FcγRIIIa (V176) (biotinylated, Acro Biosystems) (P08637 17-208 F176V limits assumed): as the sequence (P08637 17-208 limits assumed) above, with F160V counted along it
T5 sequence (P15328 25-234 limits assumed): as the sequence (P15328 25-234) above
T3 sequence (P35846 25-232 limits assumed): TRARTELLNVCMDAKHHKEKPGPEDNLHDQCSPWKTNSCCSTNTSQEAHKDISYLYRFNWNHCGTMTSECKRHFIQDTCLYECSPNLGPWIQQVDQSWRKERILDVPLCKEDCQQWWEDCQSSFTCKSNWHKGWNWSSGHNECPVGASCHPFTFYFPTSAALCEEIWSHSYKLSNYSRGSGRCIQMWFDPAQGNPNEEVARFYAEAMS
T9 sequence (P35846 25-232 limits assumed): as above

B1: Rovalpituzumab (Creative Biolabs #TAB-216CL) (antibody, V domains shown)
VH: QVQLVQSGAEVKKPGASVKVSCKASGYTFTNYGMNWVRQAPGQGLEWMGWINTYTGEPTYADDFKGRVTMTTDTSTSTAYMELRSLRSDDTAVYYCARIGDSSPSDYWGQGTLVTVSS
VL: EIVMTQSPATLSVSPGERATLSCKASQSVSNDVVWYQQKPGQAPRLLIYYASNRYTGIPARFSGSGSGTEFTLTISSLQSEDFAVYYCQQDYTSPWTFGQGTKLEIK
[1]
  EC50: 0.06 nM
[2]
  EC50 (read off the curve): ~0.1 nM
[3]
  EC50: 0.11 nM
[4]
  EC50 (read off the curve): ~0.09 nM

B2: DLL3 VHH (VHH-Fc control) (Fc fusion, not shown: a dimerising Fc or GST)
chain: EVQLVESGGGEVQPGGSLRLSCAASGSIFSINAMGWYRQAPGKQRELVAGFTGDTNTIYAESVKGRFTISRDNAKNTVYLQMSSLRAEDTAVYYCAADVQLFSRDYEFYWGQGTLVTVKP
[5]
  binding result: no binding
[6]
  koff: 0.000267 s⁻¹
  kon: 215000 M⁻¹ s⁻¹
[7]
  binding result: no binding
[8]
  binding result: no binding (tested: 200 nM)
[9]
  Kd: 2.29 nM
  koff: 0.000379 s⁻¹
  kon: 166000 M⁻¹ s⁻¹

B3: Anti-FOLR1x2; Anti-DLL3x2; (GGS)3 tetramer (bispecific antibody)
chain (part 1 of 2): QVQLVESGGGLVQPGGSLRLSCAASGFTVSNSVMAWYRQTPGNEREFVAIINSIGITNYADSVKGRFTISRDNSKNTLYLQMNSLRAEDTAVYVCNRNFDRIYWGQGTLVTVSSGGSGGSGGSEVQLVESGGGEVQPGGSLRLSCAASGSIFSINAMGWYRQAPGKQRELVAGFTGDTNTIYAESVKGRFTISRDNAKNTVYLQMSSLRAEDTAVYYCAADVQLFSRDYEFYWGQGTLVTVKP
chain (part 2 of 2): not shown
notes: As m61 with the (GGS)3 linker; also called bispecific tetramer GGSx3; not shown: hinge
[10]
  EC50 (read off the curve): ~3 nM
[11]
  binding result: binds
[12]
  binding result: binds

B4: bispecific anti-h/mFOLR1/h/mDLL3 (GGS)3 tetramer, p-SCN-Bn-DOTA conjugate (bispecific antibody)
chain (part 1 of 2): B3 chain (part 1 of 2)
chain (part 2 of 2): not shown
modifications: conjugated with p-SCN-Bn-DOTA
notes: Chelator conjugate of m63; not shown: hinge
[13]
  EC50 (read off the curve): ~3 nM

B5: H133 (Fc fusion)
chain (part 1 of 2): QVQLQESGGGSVQAGGSLKLTCAASGYIFNSCGMGWYRQSPGRERELVSRISGDGDTWHKESVKGRFTISQDNVKKTLYLQMNSLKPEDTAVYFCAVCYNLETYWGQGTQVTVSS
chain (part 2 of 2): APEAEGAPSVFLFPPKPKDTLMISRTPEVTCVVVDVSHEDPEVKFNWYVDGVEVHNAKTKPREEQYNSTYRVVSVLTVLHQDWLNGKEYKCKVSNKALPSSIEKTISKAKGQPREPQVYTLPPSREEMTKNQVSLTCLVKGFYPSDIAVEWESNGQPENNYKTTPPVLDSDGSFFLYSKLTVDKSRWQQGNVFSCSVMHEALHNHYTQKSLSLSPG
notes: not shown: hinge; copies: 2 + 2
[14]
  Kd: 2300 nM
[15]
  binding result: no binding
[16]
  binding result: no binding
[17]
  binding result: no binding
[18]
  Kd: 2.1 nM
